Test results taken from paper PMC2699591.

Molecular target: GST-LB3-coil2 (Xenopus)
Assay: biosensor binding studies

Kd: 50 µM
Substance: 6His-tagged full-length Nudel (6His-Nudel, 1-345 aa) (natural protein)
